From patent US20110212094A1 (AbbVie / Abbott, published 2011)

How the values were obtained:
[1] = target: T1, Recombinant Human TNF-α/TNFSF1A (human, UniProt P01375 77-233); experiment: Biacore SPR
T1 construct: Bought reagent for Biacore; also called huTNFα
Method: (§1) The BIACORE assay (Biacore, Inc, Piscataway, N.J.) determines the affinity of antibodies or DVD-Ig with kinetic measurements of on-rate and off-rate constants. Binding of antibodies or DVD-Ig to a target antigen (for example, a purified recombinant target antigen) is determined by surface plasmon resonance-based measurements with a Biacore® 1000 or 3000 instrument (Biacore® AB, Uppsala, Sweden) using running HBS-EP (10 mM HEPES [pH 7.4], 150 mM NaCl, 3 mM EDTA, and 0.005% surfactant P20) at 25° C. All chemicals are obtained from Biacore® AB (Uppsala, Sweden) or otherwise from a different source as described in the text. For example, approximately 5000 RU of goat anti-mouse IgG, (Fcγ), fragment specific polyclonal antibody (Pierce Biotechnology Inc, Rockford, Ill.) diluted in 10 mM sodium acetate (pH 4.5) is directly immobilized across a CM5 research grade biosensor chip using a standard amine coupling kit according to manufacturer's instructions and procedures at 25 μg/ml. Unreacted moieties on the biosensor surface are blocked with ethanolamine. Modified carboxymethyl dextran surface in flowcell 2 and 4 is used as a reaction surface. Unmodified carboxymethyl dextran without goat anti-mouse IgG in flow cell 1 and 3 is used as the reference surface. For kinetic analysis, rate equations derived from the 1:1 Langmuir binding model are fitted simultaneously to association and dissociation phases of all eight injections (using global fit analysis) with the use of Biaevaluation 4.0.1 software. Purified antibodies or DVD-Ig are diluted in HEPES-buffered saline for capture across goat anti-mouse IgG specific reaction surfaces. Antibodies or DVD-Ig to be captured as a ligand (25 μg/ml) are injected over reaction matrices at a flow rate of 5 μl/min. The association and dissociation rate constants, kₘ (M⁻¹s⁻¹) and koff (s⁻¹) are determined under a continuous flow rate of 25 μl/min. Rate constants are derived by making kinetic binding measurements at different antigen concentrations ranging from 10-200 nM. The equilibrium dissociation constant (M) of the reaction between antibodies or DVD-Igs and the target antigen is then calculated from the kinetic rate constants by the following formula: KD=koff/kₒₙ. Binding is recorded as a function of time and kinetic rate constants are calculated.

[2] = target: T2, Recombinant Human SOST (human, UniProt Q9BQB4 24-213); experiment: Biacore SPR
T2 construct: R&D reagent in Biacore; also called sclerostin; Human sclerostin (Abbott PR-1261069)
T2 sequence (looked up): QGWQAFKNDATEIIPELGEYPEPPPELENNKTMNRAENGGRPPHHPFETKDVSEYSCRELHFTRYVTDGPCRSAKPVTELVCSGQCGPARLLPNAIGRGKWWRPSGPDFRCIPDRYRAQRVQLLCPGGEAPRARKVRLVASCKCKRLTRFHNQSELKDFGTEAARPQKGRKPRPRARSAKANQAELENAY
Method: as §1

[3] = target: T1, Recombinant Human TNF-α/TNFSF1A; experiment: cell-based or functional assay
[4] = target: T3, Recombinant Human β-NGF (human, UniProt P01138 122-239, limits assumed); experiment: Biacore SPR
T3 construct: Bought reagent used in the Biacore analyses
T3 sequence (P01138 122-239 limits assumed): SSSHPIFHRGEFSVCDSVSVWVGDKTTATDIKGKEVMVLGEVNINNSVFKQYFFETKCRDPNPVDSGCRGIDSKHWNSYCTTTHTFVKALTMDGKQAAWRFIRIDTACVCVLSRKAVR
Method: as §1

[5] = target: NGF (Neuroscreen-1 bioassay); experiment: cell-based or functional assay
[6] = target: T3, Recombinant Human β-NGF; experiment: Biacore SPR; 25 C, HBS-EP pH 7.4; antibody captured on the chip, antigen 10-200 nM in flow
Method: The BIACORE assay (Biacore, Inc, Piscataway, N.J.) determines the affinity of antibodies or DVD-Ig with kinetic measurements of on-rate and off-rate constants. Binding of antibodies or DVD-Ig to a target antigen (for example, a purified recombinant target antigen) is determined by surface plasmon resonance-based measurements with a Biacore® 1000 or 3000 instrument (Biacore® AB, Uppsala, Sweden) using running HBS-EP (10 mM HEPES [pH 7.4], 150 mM NaCl, 3 mM EDTA, and 0.005% surfactant P20) at 25° C. All chemicals are obtained from Biacore® AB (Uppsala, Sweden) or otherwise from a different source as described in the text. […] The association and dissociation rate constants, kₘ (M⁻¹s⁻¹) and koff (s⁻¹) are determined under a continuous flow rate of 25 μl/min. […] The equilibrium dissociation constant (M) of the reaction between antibodies or DVD-Igs and the target antigen is then calculated from the kinetic rate constants by the following formula: KD=koff/kₒₙ. Binding is recorded as a function of time and kinetic rate constants are calculated.

T1 sequence (P01375 77-233 limits assumed): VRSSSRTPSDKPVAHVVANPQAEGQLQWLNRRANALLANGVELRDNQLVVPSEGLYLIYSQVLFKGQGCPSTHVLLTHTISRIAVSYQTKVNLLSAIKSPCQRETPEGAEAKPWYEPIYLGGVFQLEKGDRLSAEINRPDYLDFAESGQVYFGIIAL

B1: DVD1249 (bispecific antibody, human IgG1, kappa)
heavy: not shown
light: DVQMIQSPSSLSASLGDIVTMTCQASQGTSINLNWFQQKPGKAPKLLIYGSSNLEDGVPSRFSGSRYGTDFTLTISSLEDEDLATYFCLQHSYLPYTFGGGTKLEIKRTVAAPDIQMTQSPSSLSASVGDRVTITCRASQGIRIDLGWYQQKPGKAPKRLIYAASTLQSGVPSRFSGSGSGTEFIFTISSLQPEDFASYYCLQHKSYPLTFGGGTKVEIKRTVAAPSVFIFPPSDEQLKSGTASVVCLLNNFYPREAKVQWKVDNALQSGNSQESVTEQDSKDSTYSLSSTLTLSKADYEKHKVYACEVTHQGLSSPVTKSFNRGEC
notes: constant regions from vectors V1/V2; also called DVD1249H; DVD1249L
[1]
  Kd: 0.389 nM
  koff: 0.000253 s⁻¹
  kon: 649000 M⁻¹ s⁻¹
[2]
  Kd: 0.017 nM
  koff: 0.000159 s⁻¹
  kon: 9.42e+06 M⁻¹ s⁻¹
[3]
  C-terminal VD TNFα Neutralization Assay EC50 nM (L929 cells): 5.42 nM

B2: DVD1233 (bispecific antibody, human IgG1, kappa)
heavy: not shown
light: DIQMTQSPSSLSASVGDRVTITCRASQSISNNLNWYQQKPGKAPKLLIYYTSRFHSGVPSRFSGSGSGTDFTFTISSLQPEDIATYYCQQEHTLPYTFGQGTKLEIKRTVAAPDIVMTQSHKFMSTTVGDRVSITCKASQAVSSAVAWYQQKPGQSPKLLIYWASTRHTGVPDRFTGSGSVTDFTLTIHNLQAEDLALYYCQQHYSTPFTFGSGTKLEIKRTVAAPSVFIFPPSDEQLKSGTASVVCLLNNFYPREAKVQWKVDNALQSGNSQESVTEQDSKDSTYSLSSTLTLSKADYEKHKVYACEVTHQGLSSPVTKSFNRGEC
notes: constant regions from vectors V1/V2; also called DVD1233H; DVD1233L
[1]
  Kd: 0.115 nM
  koff: 2.82e-05 s⁻¹
  kon: 244000 M⁻¹ s⁻¹
[4]
  Kd: 0.0217 nM
  koff: 1.82e-05 s⁻¹
  kon: 840000 M⁻¹ s⁻¹
[3]
  C-terminal VD TNFα Neutralization Assay EC50 nM (L929 cells): 42.4 nM
[5]
  N-Terminal VD NGF Inhibition Assay EC50 pM (ERK1/2 phosphorylation, Neuroscreen-1 cells): 62 pM

B3: DVD1226 (bispecific antibody, human IgG1, kappa)
heavy: not shown
light: DIVMTQSHKFMSTTVGDRVSITCKASQAVSSAVAWYQQKPGQSPKLLIYWASTRHTGVPDRFTGSGSVTDFTLTIHNLQAEDLALYYCQQHYSTPFTFGSGTKLEIKRTVAAPDVQMIQSPSSLSASLGDIVTMTCQASQGTSINLNWFQQKPGKAPKLLIYGSSNLEDGVPSRFSGSRYGTDFTLTISSLEDEDLATYFCLQHSYLPYTFGGGTKLEIKRTVAAPSVFIFPPSDEQLKSGTASVVCLLNNFYPREAKVQWKVDNALQSGNSQESVTEQDSKDSTYSLSSTLTLSKADYEKHKVYACEVTHQGLSSPVTKSFNRGEC
notes: constant regions from vectors V1/V2; also called DVD1226H; DVD1226L
[1]
  Kd: 0.0288 nM
  koff: 0.000116 s⁻¹
  kon: 4.02e+06 M⁻¹ s⁻¹
[2]
  Kd: 2.71 nM
  koff: 0.000199 s⁻¹
  kon: 73400 M⁻¹ s⁻¹
[3]
  N-terminal VD TNFα Neutralization Assay EC50 nM (L929 cells): 0.0409 nM

B4: AB020 (antibody, V domains shown)
VH: QVQLQESGPGLVKPSETLSLTCTVSGFSLIGYDLNWIRQPPGKGLEWIGIIWGDGTTDYNSAVKSRVTISKDTSKNQFSLKLSSVTAADTAVYYCARGGYWYATSYYFDYWGQGTLVTVSS
VL: DIQMTQSPSSLSASVGDRVTITCRASQSISNNLNWYQQKPGKAPKLLIYYTSRFHSGVPSRFSGSGSGTDFTFTISSLQPEDIATYYCQQEHTLPYTFGQGTKLEIKR
notes: Parent anti-NGF antibody; also called NGF; AB020VH
[4]
  koff: 4.08e-06 s⁻¹
  kon: 606000 M⁻¹ s⁻¹
[5]
  NGF Inhibition Assay EC50 pM (ERK1/2 phosphorylation, Neuroscreen-1 cells): 53 pM
[6]
  Kd: 0.00673 nM

B5: DVD1251 (bispecific antibody, human IgG1, kappa)
heavy: not shown
light: DIQMTQSPSSLSASVGDRVTITCRASQSISNNLNWYQQKPGKAPKLLIYYTSRFHSGVPSRFSGSGSGTDFTFTISSLQPEDIATYYCQQEHTLPYTFGQGTKLEIKRTVAAPDIQMTQSPSSLSASVGDRVTITCRASQGIRIDLGWYQQKPGKAPKRLIYAASTLQSGVPSRFSGSGSGTEFIFTISSLQPEDFASYYCLQHKSYPLTFGGGTKVEIKRTVAAPSVFIFPPSDEQLKSGTASVVCLLNNFYPREAKVQWKVDNALQSGNSQESVTEQDSKDSTYSLSSTLTLSKADYEKHKVYACEVTHQGLSSPVTKSFNRGEC
notes: constant regions from vectors V1/V2; also called DVD1251H; DVD1251L
[1]
  Kd: 0.0894 nM
  koff: 5.73e-05 s⁻¹
  kon: 641000 M⁻¹ s⁻¹
[4]
  Kd: 0.0139 nM
  koff: 1.17e-05 s⁻¹
  kon: 842000 M⁻¹ s⁻¹
[3]
  C-terminal VD TNFα Neutralization Assay EC50 nM (L929 cells): 8.02 nM
[5]
  N-Terminal VD NGF Inhibition Assay EC50 pM (ERK1/2 phosphorylation, Neuroscreen-1 cells): 95 pM
